This assay concerns the target human DNMT1 RFTS domain, residues 351–600 (human) (UniProt P26358). Description: ITC; hRFTS and ubiquitylated hPAF15_(2-30) analogs; VP-ITC; 10 mM HEPES-NaOH (pH 7.5), 150 mM NaCl, 10 μM zinc acetate; one-site model; c value 10,000 for hPAF15_(2-30)Ub2. On the technique in general: Isothermal titration calorimetry measures the heat released or taken up as one component is titrated into another.

Data on 2 substances can be found in PMC7060239.

The term Kd denotes the constant that tells how readily two partners part at equilibrium. As usually defined, the stoichiometry N is a count of units in the complex or per binding partner.

Chain of human DNMT1 RFTS domain, residues 351–600 (human) (P26358 351-600): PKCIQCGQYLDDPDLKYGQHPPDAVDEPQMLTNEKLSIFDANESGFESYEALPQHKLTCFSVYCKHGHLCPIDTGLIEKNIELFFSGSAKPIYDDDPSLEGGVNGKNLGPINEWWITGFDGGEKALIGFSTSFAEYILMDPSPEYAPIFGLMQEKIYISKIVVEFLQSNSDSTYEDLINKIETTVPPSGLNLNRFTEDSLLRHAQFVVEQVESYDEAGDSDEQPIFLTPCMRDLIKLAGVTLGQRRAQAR

With “hPAF15_(2-30)K15Ub, disulfide-linked mono-ubiquitylated analog (from UniProt Q15004 2-30)”, the Kd stood at 1200 nM.
Turning to “hPAF15_(2-30)Ub2, disulfide-linked dual mono-ubiquitylated analog of human PAF15 (residues 2–30) (from UniProt Q15004 2-30)”, the Kd stood at 1.4 nM and the stoichiometry N was 1.
